We go through one substance from publication PMC5700378.

pKd: −log10 of the molar value.

This assay deals with PrP^Sc enriched from elk brain infected with chronic wasting disease (elk) (UniProt P67986). Kind of assay: SPR. A general note: In SPR one partner is held on a chip, and binding of the other changes the refractive index at the surface.
UniProt P67986, sequence (P67986 25-233 limits assumed): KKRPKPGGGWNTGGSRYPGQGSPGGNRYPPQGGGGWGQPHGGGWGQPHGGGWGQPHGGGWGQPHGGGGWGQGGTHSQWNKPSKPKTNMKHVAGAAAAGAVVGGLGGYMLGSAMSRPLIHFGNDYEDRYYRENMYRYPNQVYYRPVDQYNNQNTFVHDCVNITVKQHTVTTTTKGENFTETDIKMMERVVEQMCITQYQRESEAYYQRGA

For the substance “purified full-length CD21 (from UniProt P20023 21-1033) (receptor)”, the pKd was 7.80.

Usually pKd stands for the Kd on a negative log10 scale, so that one unit is a factor of ten.
